Experimental data: paper PMC3991615, “The N-Terminal Domain of the Repressor of Staphylococcus aureus Phage Φ11 Possesses an Unusual Dimerization Ability and DNA Binding Affinity”

Columns and labels:
[1] = target: T1, rCI (phage phi11 CI lysogenic repressor) (Staphylococcus aureus phage phi11) (UniProt Q8SDX2); test: EMSA; settings: EMSA with ~0.1 nM 32P-DNA, 20 min on ice (0°C) unless 42°C; RNAP assay and protein storage in buffer C (10 mM Tris-HCl pH 8.0, 200 mM NaCl, 1 mM EDTA, 5% …)
T1 sequence: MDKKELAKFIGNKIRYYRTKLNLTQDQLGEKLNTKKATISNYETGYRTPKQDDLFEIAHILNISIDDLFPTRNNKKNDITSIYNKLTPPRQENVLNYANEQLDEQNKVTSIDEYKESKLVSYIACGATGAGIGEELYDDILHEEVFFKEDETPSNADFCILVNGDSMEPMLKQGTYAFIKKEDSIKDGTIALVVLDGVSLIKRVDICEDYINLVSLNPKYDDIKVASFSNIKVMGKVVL

[2] = target: T2, rNTD (N-terminal domain of phage phi11 CI repressor) (Staphylococcus aureus phage phi11) (UniProt Q8SDX2); test: EMSA; settings: EMSA with ~0.1 nM 32P-DNA, 20 min on ice (0°C) unless 42°C; RNAP assay and protein storage in buffer C (10 mM Tris-HCl pH 8.0, 200 mM NaCl, 1 mM EDTA, 5% …)
T2 sequence: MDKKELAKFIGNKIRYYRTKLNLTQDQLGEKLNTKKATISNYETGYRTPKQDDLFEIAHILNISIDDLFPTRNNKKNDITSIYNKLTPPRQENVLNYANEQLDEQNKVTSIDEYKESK

[3] = target: T2, rNTD (N-terminal domain of phage phi11 CI repressor) (Staphylococcus aureus phage phi11); test: DMS footprinting; settings: EMSA with ~0.1 nM 32P-DNA, 20 min on ice (0°C) unless 42°C; RNAP assay and protein storage in buffer C (10 mM Tris-HCl pH 8.0, 200 mM NaCl, 1 mM EDTA, 5% …)
[4] = target: recombinant N-terminal domain (NTD) of the Φ11 lysogenic repressor CI (Staphylococcus aureus phage Φ11); test: cross-linking; glutaraldehyde (0.1%), 1-5 µM protein, products analysed by 13.5% SDS-PAGE
[5] = target: recombinant N-terminal domain (NTD) of the Φ11 lysogenic repressor CI (Staphylococcus aureus phage Φ11); test: SEC; analytical gel filtration, 10 µM protein in buffer C (10 mM Tris-HCl pH 8.0, 200 mM NaCl, 1 mM EDTA, 5% glycerol) with 10 mM β-mercaptoethanol; calibrated with conalbumin, ovalbumin, carbonic anhydrase, cytochrome C
[6] = target: Φ11 CI with a C-terminal histidine tag (Staphylococcus aureus phage Φ11); test: cross-linking; glutaraldehyde (0.1%), 1-5 µM protein, products analysed by 13.5% SDS-PAGE
[7] = target: Φ11 CI with a C-terminal histidine tag (Staphylococcus aureus phage Φ11); test: SEC; analytical gel filtration, 10 µM protein in buffer C (10 mM Tris-HCl pH 8.0, 200 mM NaCl, 1 mM EDTA, 5% glycerol) with 10 mM β-mercaptoethanol; calibrated with conalbumin, ovalbumin, carbonic anhydrase, cytochrome C
[8] = target: T3, rNTD (N-terminal domain of phage phi11 CI repressor) (Staphylococcus aureus phage phi11, UniProt Q8SDX2 1-118); test: EMSA; 0°C (on ice); EMSA with ~0.1 nM 32P-DNA, 20 min on ice (0°C) unless 42°C; RNAP assay and protein storage in buffer C (10 mM Tris-HCl pH 8.0, 200 mM NaCl, 1 mM EDTA, 5% glycerol); standard EMSA buffer not printed (per refs 7, 8); native PAGE 6% or 10%; settings: protein: recombinant, tags: C-terminal His6 (8 additional residues), chain copies: 2, label: 32P
T3 sequence: T2 sequence

[9] = target: T4, rCI (phage phi11 CI lysogenic repressor) (Staphylococcus aureus phage phi11, UniProt Q8SDX2 1-239); test: as above; settings: protein: recombinant; tags: C-terminal His tag; chain copies: 2; label: 32P; 3' overhang 1 nt (both ends)
T4 sequence: T1 sequence

ATTCAACAAAAAAATACACGAAAAGCAAACTTTTATGTTGACTCAAGTACACGTATCGTGTATAGTAGGTTTTGTAAGCGGGAGGTGACAACATGCAATGGAATTTAATAAAGTTGAGAAAAGAAAGAAAGTGTACTCAAGAAGATTTAGGATCC (double strand) [O1O2]
binding [1]: binds | binding [2]: binds

CTCGAGCATTTTAACTACGTTTGCAGCTTGCTCGCCACGGTCGCCTTCAACGATGTCGAATTCAACTTTTTGGCCTTCTTCTAATGATTTGTATCCATCTTCAGCGATTGCTGAGAAGTGTACGAATACGTCGCTACCATCTTCTCTTTCGATGAAACCAAAACCTTTTTCTGCATTAAACCATTTAACTGTACCGTTATTCATCCATGGCATG (double strand) [cspC]
binding [2]: no binding

GGATCCTAAATCTTCTTGAGTACACTTTCTTTCTTTTCTCAACTTTATTAAATTCCATTGCATGTTGTCACCTCCCGCTTACAAAACCTACTATACACGATACGTGTACTTGAGTCAACATAAAAGTTTGCTTTTCGTGTATTTTTTTGTTGAATACCAAAAATAATTGGGTTATACTATAGGTAAATTTAAGGAGGTAAGAAAATGGATAAAAAAGAATTAGCGAAATTTATAGGCAATAAAATCAGATACTATAGAACCAAGAATTC (double strand) [O]
binding [2]: binds | binding [3]: binds

recombinant N-terminal domain (NTD) of the Φ11 lysogenic repressor CI (domain or fragment)
stoichiometry N [4]: 2 | stoichiometry N [5]: 2

Φ11 CI with a C-terminal histidine tag (natural protein)
stoichiometry N [6]: 2 | stoichiometry N [7]: 2

B1: O1 (dsDNA)
DNA 1: GACTCAAGTACACGTATCGTGTATAGTAGGTTTA
DNA 2: AAACCTACTATACACGATACGTGTACTTGAGTCA
Kd ([8]; 3' overhang 1 nt (both ends)): 3.13 ± 0.51 nM | Kd [9]: 3.17 ± 0.75 nM

B2: O2 (dsDNA)
DNA 1: ATTCAACAAAAAAATACACGAAAAGCAAACTTTTATGTTGACTCAAGTA
DNA 2: TACTTGAGTCAACATAAAAGTTTGCTTTTCGTGTATTTTTTTGTTGAAT
Kd ([8]; blunt): 7.83 ± 0.44 nM
